We go through one substance from paper PMC4503349.

The target of the test is Recombinant human calcineurin, comprising CnAα and CnB subunits (human) (UniProt Q08209).

Regarding “calmodulin (from UniProt P0DP23 1-149) (natural protein)”, the CaN phosphatase activity (malachite green, RIIP substrate) in a Ca2+/CM cross-titration; CaN:CM ratio that gives 50% activation at 500 μM Ca2+ (molar ratio (CaN:CM)) came to 1.
